Assay: soluble on expression in E. coli; label from the status in PepcDB or PDB records

Row | Sequence | soluble on expression in E. coli
1 | MGSDKIHHHHHHMQRDDDSFMLVPSKGEDYMAGWHLDTKMAQDIVARTMRIIDTNINVMDARGRIIGSGDRERIGELHEGALLVLSQGRVVDIDDAVARHLHGVRQGINLPLRLEGEIVGVIGLTGEPESLRKYGELVCMTAEMMLEQSRLMHLLAQDSRLREELVMNLIQAEEHTPALNEWAQRLGIDLNQPRVVAMIEVDSGQLGVDSAMAELQQLQNALTTPDRNNLVAIVSLTEMVVLKPALNSFGRWDADDHVRRVEQLIARMKENGQLRFRVALGNFFTGPGSIARSYRTARTTMMVGKQRMPESRSYFYQDLMLPVLLDSLRGGWQANELARPLARLKAMDNNGLLRRTLQAWFRHNVQPLATSKALFIHRNTLEYRLNRISELTGLDLGSFDDRLLLYIALQLDEQR | not soluble
2 | MNTKPQLTLLKVQASYRGDPTTLFHQLCGARPATLLLESAEINDKQNLQSLLVIDSALRITALGHTVSVQALTANGPALLPLLDEALPPEVRNQARPNGRELTFPAIDAVQDEDARLRSLSVFDALRTILTLVDSPADEREAVMLGGLFAYDLVAGFENLPALRQDQRCPDFCFYLAETLLVLDHQRGSARLQASVFSEQASEAQRLQHRLEQLQAELQQPPQPIPHQKLENMQLSCNQSDEEYGAVVSELQEAIRQGEIFQVVPSRRFSLPCPAPLGPYQTLKDNNPSPYMFFMQDDDFTLFGASPESALKYDAGNRQIEIYPIAGTRPRGRRADGSLDLDLDSRIELEMRTDHKELAEHLMLVDLARNDLARICQAGSRYVADLTKVDRYSFVMHLVSRVVGTLRADLDVLHAYQACMNMGTLSGAPKVRAMQLIAALRSTRRGSYGGRVGYFTAVRNLDTCIVIRSAYVEDGHRTVQAGAGVVQDSIPEREADETRNKARAVLRAIATAHHAKEVF | soluble
3 | MHSIYKFSTCNVHRESPLRVRVEDLTVAYNGEPVLSGVNLEFRGPGLVQIIGPNGAGKTTFLKAILGLIKPARGRVFLDGFEATGRPEMVGRYAGYVPQNPSAPKLSPMTVREFVETSLRLRGVTRARERAVEVLHTLGIRGEVLESRLWELSMGMLQRVFIARAIAPDPKMLVMDEPLASVDPAGRMEIARIIAGLARERLVLMTSHDPSLLLGHTDIIVVINRDLIASGPPEEVYREDVLRRVYGESVARGLVLAGEGGAHG | soluble
4 | MSLASLIGLAVCTGNAFSPALAAEAKQPNLVIIMADDLGYGDLATYGHQIVKTPNIDRLAQEGVKFTDYYAPAPLSSPSRAGLLTGRMPFRTGIRSWIPSGKDVALGRNELTIANLLKAQGYDTAMMGKLHLNAGGDRTDQPQAQDMGFDYSLANTAGFVTDATLDNAKERPRYGMVYPTGWLRNGQPTPRADKMSGEYVSSEVVNWLDNKKDSKPFFLYVAFTEVHSPLASPKKYLDMYSQYMSAYQKQHPDLFYGDWADKPWRGVGEYYANISYLDAQVGKVLDKIKAMGEEDNTIVIFTSDNGPVTREARKVYELNLAGETDGLRGRKDNLWEGGIRVPAIIKYGKHLPQGMVSDTPVYGLDWMPTLAKMMNFKLPTDRTFDGESLVPVLEQKALKREKPLIFGIDMPFQDDPTDEWAIRDGDWKMIIDRNNKPKYLYNLKSDRYETLNLIGKKPDIEKQMYGKFLKYKTDIDNDSLMKARGDKPEAVTWGEGHHHHHH | soluble
5 | MRDMIIVVPIGEVPSDVLSFLSENIESFYMKFGIGVKIIGSLPISAFSHAYDFYRNQYLARHFLPALSIIRRDYKALAVMGVTEVDLYESGLNFIFGIAHPGFGVALISLHRLYPEFYGEPPDRKLLKERALKEAMHELGHVFGLEHCPNPKCVMHFSNSIIDTDIKSWMYCKNCLRKLEERLGRGYVRGRTLEHHHHHH | not soluble
6 | MGSDKIHHHHHHACRQVATESRVQPASFEVGSSMIADTFFLDSLSLFMPETNEEALINNIDRVYESNGRYFILDKRMKQVLCYTLSGKHLFTIHAVGNGKGEYVDLFDIAIDEAENKLLLLTYPSQILYYDLEGTYLSSYPLDDTYQSFAVDKGFIYLRNDTYANGVVSDYSLIVINKETGKQTSLLEPLYETAPFCSSGNYQITNTASVLFTRKFDNHIYRITGESIEPLYMVDWKDKAFPESDKQRQFQCNDLNQLCYQGKYVYTMTDLCDTPSYLLFRTNQPGMCLLSKATSTVNNYQVIINTDYQLPLPNYMSVEGKQSRIFFIYSSEVLCEQKKLSAEEDINEKMSSLLGQIKEGDNPVIFTYHVK | not soluble
7 | MCLAVPGKVIEVNGPVAVVDFGGVKREVRLDLMPDTKPGDWVIVHTGFAIEKLDEKKAMEILEAWAEVEKAMEGF | soluble
8 | MFSPDTNSEFYDDFYTKYNTNMAPTTSTFNAQPRLSLDSGLGLTNDSFYSTDLNETHLMDISAGNASTSFQSQPPPQLESSPPTKWARIRTPPNRKKKISHEGPNQEALPPGFNLFSPPSRKKIKTAFSSPPPKSMKTPDSLRKSIRISSPSPFKVTFSKTPLKLSNNENVTGIHIGRSGTYYNKQVTGSASKRCLLPSKPDGFTFLGSPGNSDVLDFPLQTTFEGFGDLDTPAKINAALEVNNDDSMDYYQYAGMIETSSSLATYTNSTGPLVENHARNLKSVPISRTASRNLMKISRKSVEEPVPEPQAVHVEPVIEKPTKISAKKEKEQKKSAAKEAALKEAKEKEMRIWKLAPFETPKKEVPLYSGRWLVISTGRTLAQQELFSDAKSFFKANPPPAPRAPQAPELASGPRRIPTIQRVTLFKHRYRSPRD | not soluble
9 | MSQLSPKNKNDLRQCVLYEFIDGKPVFEAYKSFCDVIGDSCMDYVDFEFWFMRFANGNLNLDFNFDKSSSLSIFNIPIEILVKIMNELDWVSRLSMRQVSRAFRSIVDEESKMPKSLSFGFYDDTVFLQYDDSCVKYKDLEEEGHDDKIDIALFDFGVTLINPRLKLDYFEVLIDAKHGLDIDSDKCFKSLEALLKARNLPLPVKNVNIETNSGYEMNHAKNIIPYLKSGVLEKIVTNCDSSSFENIEIMKEIVELDQWKQAKHLEIDSLVKIPIENFLHFEHFELFFEHLCFQDVKERLLESSNFRHCTLQVMNSFDLEELAANFGIQYMGDDEGIRQTTFYEISTNSLEMTMFLDFVTFDRKF | not soluble
10 | MKLLDHKLSLLEITDEEKSDEIILNLSRNVKKDLEDIVVANVSMENVLVMNIKVPPTLNKQNAVEYATMEISRNLGILPEQLVVAPLDIRGGEGLFFVSKVDQVKSFVTDLMKKEFPETDVVIPDIVKYLEVFEFYFGKRLKGTS | soluble
11 | MGSDKIHHHHHHMKRENLHQPFEISFSELAESLLKEHEHTFFELVYILSGTGIQWINNNMFPYHDGHLFMITPGDTHSFEIHTTTKFVDIKFNDIYIHSSVFGAENIQRLEFILQHANHQPGCILRNKVDKLLVKPMIEAIIREYINRNLYSKEIITQIINTIIIVVARNIAMFLPEQVDECSEDKSLDILQYIQANIYKTGKIRAKDISQHFGISENYLGRYIKKHTNETMQQYILNYKLKLVENRLLHSQMRICEIVEELGFTDESHLNKFFKKYRGCSPSNFRKNNLK | not soluble
12 | VARAVGKENKSEFGVPSVVEMRPPALCEGCGHRDMYITLTEVLKEEYPSHKVFSDIGCYTLGANAPFNAINSCVDMGASITMAKGAADGGLHPSVAVIGDSTFTHSGMTGLLDCVNENANVVIVISDNETTAMTGGQDSAGTGRIESICIGLGVDPAHIRVVVPLKKNHEEMRQIIREEIEYNGVSVIIPRRECIQTLARKKRSK | not soluble
13 | MNARSTRFTQDEVLDLIIVGGGINGAGIAADATGRGLKVGLYDAKDFASATSSASSKLVHGGLRYLEHYEFRLVSEALAEREVLLKKAPHIVTPMRFRLPHRPFLRPAWMIRAGLFLYDNLGKRTSLPASHKVNLKAGSVTKPEMQIGFEYSDCWVDDARLVILNAMQAQEQGAEVLNYCTVEKAERMGDLWHVTLLDEQTQQRFERRSHALVNAAGPWVKQFLNENAHVSSPYGIRLIQGSHIIVPRIHDEPQAYILQNEDKRIVFVIPYLDDYSMIGTTDVEYKGDPRKVAITDAERDYLISIVNKHFMREIARSDIIAEFSGVRPLCDDESNSPQAITRDYTLSLDQQADEAPLLSIFGGKLTTYRKLGEAAMKHLAPFFPKMKAPWTADAPLPGGENFDYAALKNQLVAAFPFITESVIERWLRSYGSRTTQLLAGVTGIEDLGIAFSGELYQREIDYLCEKEFARHAQDIFWRRSKLGLNHDTSVVEEVESYLQQKFHAEQPLKATVLEHHHHHH | soluble
14 | MQRKLNQSLLLAEAYFKRKFTMPEVNYELRGIKAGVAYLQKNEIKFNRTLLQENTDEFIRQVVPHELAHLIVYQMFGRVKPHGKEWQLVMNEIFKLPADTCHQFDIKNVQGKTFEYRCACQTHFLTIRRHNKIMKENIEYLCKKCRGKLVFVDDEELEHHHHHH | not soluble
15 | MENQEVVLSIDAIQEPEQIKFNMSLKNQSERAIEFQFSTGQKFELVVYDSEHKERYRYSKEKMFTQAFQNLTLESGETYDFSDVWKEVPEPGTYEVKVTFKGRAENLKQVQAVQQFEVKMAGDPLEHHHHHH | soluble
16 | MYKIVNNDQNKRLVIAKSKAQSLRKTFLHSCLPKMPLSQPWSHSFEICQEHNTQKRISYSRLHRSIGRLRVFLTDDNSILKSTNKFIKILIQQIAFHNLFRWYCRWNDEFQVDEHLDHFCRKDKAQEVFNVSWLVLKFNVFKLYTQKFLYTYSFITIFRLSFRFPTTFRSIF | not soluble
17 | MYHNSSQKRHWTFSSEEQLARLRADANRKFRCKAVANGKVLPNDPVFLEPHEEMTLCKYYEKRLLEFCSVFKPAMPRSVVGTACMYFKRFYLNNSVMEYHPRIIMLTCAFLACKVDEFNVSSPQFVGNLRESPLGQEKALEQILEYELLLIQQLNFHLIVHNPYRPFEGFLIDLKTRYPILENPEILRKTADDFLNRIALTDAYLLYTPSQIALTAILSSASRAGITMESYLSESLMLKENRTCLSQLLDIMKSMRNLVKKYEPPRSEEVAVLKQKLDRCHSAELALNVITKKRKGYEDDDYVSKKSKHEEEEWTDDDLVESL | soluble
18 | MFFVLSPAKNLNEKDPAPVSEFTQPDLLAESDILMQQLRELAPQQIAELMHVSDKIALLNAQRNAEWNTPFTPENAKQAVFMFNGDVYEGMDANTLDIGQIRYLQNHVRLLSGLYGLLRPLDLIQPYRLEMGTAFANLRGKNLYEFWGDIITNLLNDTLAQAGSNTLVNLASQEYFKSVNTKKLRARLITPIFKDEKNGKYKIISFYAKRARGLMVRYAAEHHITDPEMLKNFNYEGYAFNDAASNESEWVFMRSEQIK | not soluble
19 | MQVLHVCSEMFPLLKTGGLADVIGALPAAQIADGVDARVLLPAFPDIRRGVTDAQVVSRRDTFAGHITLLFGHYNGVGIYLIDAPHLYDRPGSPYHDTNLFAYTDNVLRFALLGWVGAEMASGLDPFWRPDVVHAHDWHAGLAPAYLAARGRPAKSVFTVHNLAYQGMFYAHHMNDIQLPWSFFNIHGLEFNGQISFLKAGLYYADHITAVSPTYAREITEPQFAYGMEGLLQQRHREGRLSGVLNGVDEKIWSPETDLLLASRYTRDTLEDKAENKRQLQIAMGLKVDDKVPLFAVVSRLTSQKGLDLVLEALPGLLEQGGQLALLGAGDPVLQEGFLAAAAEYPGQVGVQIGYHEAFSHRIMGGADVILVPSRFAPCGLTQLYGLKYGTLPLVRRTGGLADTVSDCSLENLADGVASGFVFEDSNAWSLLRAIRRAFVLWSRPSLWRFVQRQAMAMDFSWQVAAKSYRELYYRLKLEHHHHHH | soluble
20 | MAQITTTDANEFSSSAEFIPMRGFSNCHLQTMLPRLFRRQVKFTPYWQRLELPDGDFVDLAWSENPAQAQHKPRLVVFHGLEGSLNSPYAHGLVEAAQKRGWLGVVMHFRGCSGEPNRMHRIYHSGETEDASWFLRWLQREFGHAPTAAVGYSLGGNMLACLLAKEGNDLPVDAAVIVSAPFMLEACSYHMEKGFSRVYQRYLLNLLKANAARKLAAYPGTLPINLAQLKSVRRIREFDDLITARIHGYADAIDYYRQCSAMPMLNRIAKPTLIIHAKDDPFMDHQVIPKPESLPPQVEYQLTEHGGHVGFIGGTLLHPQMWLESRIPDWLTTYLEAKSCLEHHHHHH | not soluble

— the DeepSol protein solubility set
